Data from the supplement of paper PMC9112550, “Optimization of the antimicrobial peptide Bac7 by deep mutational scanning” (BMC Biology, 2022).

test system: Escherichia coli TOP10; assay: shrunken log2 fold change of peptide-encoding DNA abundance (4.5 h post-induction vs induction); higher = less antimicrobial activity (less host growth inhibition); conditions: time post-induction: 4.5 h; library: site-saturation at positions 5, 18, 19, 20
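Further: peptides expressed intracellularly from a pBAD plasmid library in pooled LB shake-flask culture, induced with 0.3% L-arabinose, DNA abundance read by NGS, three biological replicates, DESeq2 with apeglm shrinkage.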

Row | Sequence | shrunken log2 fold change
1 | RRIRDRPPRLPRPRPRPLVPPRP | 0.249
2 | RRIRERPPRLPRPRPRPLEWPRP | -0.0018
3 | RRIRWRPPRLPRPRPRPEIQPRP | 0.685
4 | RRIRRRPPRLPRPRPRPTWSPRP | 0.519
5 | RRIRLRPPRLPRPRPRPNQPPRP | 0.0224
6 | RRIRNRPPRLPRPRPRPYEPPRP | -0.0287
7 | RRIRRRPPRLPRPRPRPKTVPRP | 0.233
8 | RRIRLRPPRLPRPRPRPHREPRP | -0.969
9 | RRIRVRPPRLPRPRPRPDSWPRP | -0.0688
10 | RRIRVRPPRLPRPRPRPSYEPRP | -0.298
11 | RRIRQRPPRLPRPRPRPWHLPRP | -0.0241
12 | RRIRLRPPRLPRPRPRPHFPPRP | 2.38
13 | RRIRSRPPRLPRPRPRPHWNPRP | -0.429
14 | RRIRPRPPRLPRPRPRPNDNPRP | -0.533
15 | RRIRQRPPRLPRPRPRPLFHPRP | -0.733
16 | RRIRCRPPRLPRPRPRPDVTPRP | 0.0172
17 | RRIRVRPPRLPRPRPRPLEAPRP | 0.242
18 | RRIRDRPPRLPRPRPRPQTQPRP | 0.372
19 | RRIRIRPPRLPRPRPRPVYCPRP | -0.127
20 | RRIRPRPPRLPRPRPRPYHAPRP | -0.19
21 | RRIRARPPRLPRPRPRPGSNPRP | 0.127
22 | RRIRARPPRLPRPRPRPDCSPRP | 0.958
23 | RRIRDRPPRLPRPRPRPATRPRP | 0.701
24 | RRIRGRPPRLPRPRPRPWRDPRP | 0.0475
25 | RRIRKRPPRLPRPRPRPAYLPRP | 0.105

Row | Sequence | shrunken log2 fold change
26 | RRIRGRPPRLPRPRPRPWPLPRP | 0.797
27 | RRIRIRPPRLPRPRPRPYVAPRP | -0.674
28 | RRIRYRPPRLPRPRPRPQQLPRP | -0.181
29 | RRIRARPPRLPRPRPRPYFQPRP | -0.383
30 | RRIRDRPPRLPRPRPRPEKVPRP | -0.00893
31 | RRIRPRPPRLPRPRPRPNMFPRP | -0.254
32 | RRIRQRPPRLPRPRPRPWVQPRP | -0.0131
33 | RRIRKRPPRLPRPRPRPSCMPRP | -0.0405
34 | RRIRRRPPRLPRPRPRPHRLPRP | 0.0507
35 | RRIRTRPPRLPRPRPRPAPHPRP | 0.22
36 | RRIRNRPPRLPRPRPRPKIGPRP | -0.0153
37 | RRIRHRPPRLPRPRPRPMSSPRP | -0.225
38 | RRIRKRPPRLPRPRPRPRPVPRP | 0.732
39 | RRIRPRPPRLPRPRPRPGIEPRP | -0.00839
40 | RRIRYRPPRLPRPRPRPSTQPRP | -0.641
41 | RRIRSRPPRLPRPRPRPNNYPRP | -0.597
42 | RRIRQRPPRLPRPRPRPKHMPRP | -0.237
43 | RRIRFRPPRLPRPRPRPIQNPRP | -0.544
44 | RRIRIRPPRLPRPRPRPCTNPRP | -0.0668
45 | RRIRDRPPRLPRPRPRPNIFPRP | -0.0871
46 | RRIRGRPPRLPRPRPRPHHMPRP | -0.219
47 | RRIRHRPPRLPRPRPRPEKSPRP | 0.0275
48 | RRIRVRPPRLPRPRPRPPRDPRP | 0.303
49 | RRIRTRPPRLPRPRPRPNLEPRP | -0.0562
50 | RRIRTRPPRLPRPRPRPEMMPRP | -0.0411

Row | Sequence | shrunken log2 fold change
51 | RRIRKRPPRLPRPRPRPVYNPRP | -0.0144
52 | RRIRRRPPRLPRPRPRPNYVPRP | -0.338
53 | RRIRKRPPRLPRPRPRPRLKPRP | 0.365
54 | RRIRFRPPRLPRPRPRPVECPRP | -0.17
55 | RRIRHRPPRLPRPRPRPDRYPRP | -0.236
56 | RRIRHRPPRLPRPRPRPHKFPRP | -0.636
57 | RRIRMRPPRLPRPRPRPWHEPRP | -0.126
58 | RRIRNRPPRLPRPRPRPEAYPRP | 0.0274
59 | RRIRIRPPRLPRPRPRPRDCPRP | -0.296
60 | RRIRGRPPRLPRPRPRPPTAPRP | 1.01
61 | RRIRPRPPRLPRPRPRPMCAPRP | 0.159
62 | RRIRCRPPRLPRPRPRPWSLPRP | -1.5
63 | RRIRDRPPRLPRPRPRPEGEPRP | -0.0124
64 | RRIRNRPPRLPRPRPRPMLTPRP | -0.296
65 | RRIRLRPPRLPRPRPRPNIMPRP | -0.602
66 | RRIRQRPPRLPRPRPRPTQHPRP | 0.195
67 | RRIRPRPPRLPRPRPRPNTYPRP | -0.67
68 | RRIRPRPPRLPRPRPRPGASPRP | 0.344
69 | RRIRSRPPRLPRPRPRPPPQPRP | 0.835
70 | RRIRRRPPRLPRPRPRPFHVPRP | -0.00804
71 | RRIRLRPPRLPRPRPRPSQEPRP | -0.0518
72 | RRIRCRPPRLPRPRPRPHKSPRP | 0.139
73 | RRIRHRPPRLPRPRPRPSDVPRP | -0.042
74 | RRIRHRPPRLPRPRPRPTAHPRP | -0.173
75 | RRIRFRPPRLPRPRPRPKQPPRP | 0.137
